These results are taken from publication PMC4198130, “Protein Interactions of the Vesicular Glutamate Transporter VGLUT1” (PLoS ONE, 2014).

Test [1] addresses T1, GST fusion of the SH3 domain of EPS8 (Panomics) (human, UniProt Q12929 531-590).
T1 construct: EPS8, human, SH3 domain; source: bought: Panomics/Affymetrix (on the TranSignal SH3 Domain Array; GST fusion for pull-down)
Kind of test: peptide or protein array; TranSignal SH3 and WW Domain Arrays (Panomics/Affymetrix): purified GST fusions of human SH3 or WW domains immobilised on a membrane, in duplicate at 100 ng; His-PP1 in solution, detected with anti-His antibody (methods: purified His-PP1; results and legend: bacterial extract with the tagged protein). The settings on record: both partners purified.

Test [2] has as its target T2, GST fusion of the SH3 domain of Fyn (SH3 domain array) (human, UniProt P06241 82-143).
T2 construct: Fyn, human, SH3 domain; source: bought: Panomics/Affymetrix TranSignal SH3 Domain Array (purified GST fusion on a membrane)
Described as above. The settings on record: both partners purified.

Test [3] addresses T3, GST fusion of the SH3 domain of sorting nexin 9 (Panomics) (human, UniProt Q9Y5X1 1-62).
T3 construct: sorting nexin 9, human, SH3 domain; also called SNX9; source: bought: Panomics/Affymetrix (on the TranSignal SH3 Domain Array; GST fusion for pull-down)
The test is described as above. The settings on record: both partners purified.

Test [4] has as its target T4, GST fusion of the SH3 domain of Hck (SH3 domain array) (human, UniProt P08631 78-138).
T4 construct: Hck, human, SH3 domain; source: bought: Panomics/Affymetrix TranSignal SH3 Domain Array (purified GST fusion on a membrane)
Described as above. The settings on record: both partners purified.

Test [5] addresses GST fusion of the SH3 domain of Src (SH3 domain array) (human, UniProt P12931 84-145). The description is as above. The settings on record: both partners purified.
Test [6] concerns the target T5, GST-Lyn-SH3 (Panomics) (human, UniProt P07948 63-123).
T5 construct: Lyn, human, SH3 domain; also called SH3 domain of Lyn; source: bought: Panomics (purified GST-Lyn-SH3 protein; also on the TranSignal SH3 Domain Array)
The test is described as above. The settings on record: both partners purified.

The target in test [7] is T6, GST fusion of the SH3 domain of human Lyn (pGEX, from Clifford Lowell) (human, UniProt P07948 63-123).
T6 construct: Lyn, human, SH3 domain; That the pGEX constructs from C; also called GST-Lyn
Kind of test: pull-down; GST fusions of SH3 or WW domains on glutathione sepharose beads, incubated with detergent-solubilized (2% TX-100) rat brain extract, RT 60 min; bound VGLUT1 by immunoblot, band intensity normalised to lysate. To be noted: one partner purified. For orientation: In western blotting, separated proteins are transferred to a membrane and probed.

Test [8] addresses T7, GST fusion of the third SH3 domain of Nck1 (human, UniProt P16333 190-252).
T7 construct: Nck1, human, third SH3 domain (D3); also called Nck1 D3
The test is described as above. To be noted: one partner purified.

In test [9] the target is T8, GST fusion of the SH3 domain of human Fyn (pGEX, from Clifford Lowell) (human, UniProt P06241 82-143).
T8 construct: Fyn, human, SH3 domain; also called GST-Fyn
The test is described as above. To be noted: one partner purified.

The target of test [10] is T9, GST fusion of the first SH3 domain of Nck2 (human, UniProt O43639 2-61).
T9 construct: Nck2, human, first SH3 domain (D1); also called Nck2 D1
Described as above. To be noted: one partner purified.

Test [11] addresses T10, GST fusion of the second SH3 domain of Nck1 (human, UniProt P16333 106-165).
T10 construct: Nck1, human, second SH3 domain (D2); also called Nck1 D2
Described as above. The settings on record: one partner purified.

For test [12], the target named is T5, GST-Lyn-SH3 (Panomics). The test is described as above. To be noted: one partner purified.

T5 sequence (P07948 63-123): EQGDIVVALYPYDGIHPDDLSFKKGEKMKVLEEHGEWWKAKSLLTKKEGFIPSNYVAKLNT
T6 sequence (P07948 63-123): as above
T1 sequence (Q12929 531-590): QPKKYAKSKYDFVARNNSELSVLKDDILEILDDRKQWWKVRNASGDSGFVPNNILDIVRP
T3 sequence (Q9Y5X1 1-62): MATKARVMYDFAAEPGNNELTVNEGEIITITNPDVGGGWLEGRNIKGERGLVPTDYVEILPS
T4 sequence (P08631 78-138): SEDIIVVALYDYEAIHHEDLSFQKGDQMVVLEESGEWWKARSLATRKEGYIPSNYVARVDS
T2 sequence (P06241 82-143): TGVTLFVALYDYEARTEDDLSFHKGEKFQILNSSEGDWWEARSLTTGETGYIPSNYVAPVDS
T8 sequence (P06241 82-143): as above
T9 sequence (O43639 2-61): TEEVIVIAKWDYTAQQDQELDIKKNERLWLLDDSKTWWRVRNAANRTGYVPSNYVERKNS

B1: His-tagged VGLUT1 C-terminal peptide (amino acids 513-549) (domain or fragment, rat, UniProt Q62634 513-549, looked up)
chain: HDQLAGSDESEMEDEVEPPGAPPAPPPSYGATHSTVQ
notes: VGLUT1 (vesicular glutamate transporter 1), rat, amino acids 513-549 of the C-terminus (acidic cluster, first polyproline domain PP1, PEST); Cloned in the Ligand Expression Vector (Panomics/Affymetrix); also called His-PP1; His-VGLUT1 PP1; source: E. coli, purified (Ni-NTA, imidazole elution, dialysis) by the methods; soluble bacterial extract by the results and the legend
With B1, the binding result in [1], in [2], in test [3], in [4], in test [5] and in [6] was “binds” in each case.

B2: VGLUT1 from rat brain extract (natural protein, rat (endogenous in rat brain), UniProt Q62634 1-560, looked up)
chain: MEFRQEEFRKLAGRALGRLHRLLEKRQEGAETLELSADGRPVTTHTRDPPVVDCTCFGLPRRYIIAIMSGLGFCISFGIRCNLGVAIVSMVNNSTTHRGGHVVVQKAQFNWDPETVGLIHGSFFWGYIVTQIPGGFICQKFAANRVFGFAIVATSTLNMLIPSAARVHYGCVIFVRILQGLVEGVTYPACHGIWSKWAPPLERSRLATTAFCGSYAGAVVAMPLAGVLVQYSGWSSVFYVYGSFGIFWYLFWLLVSYESPALHPSISEEERKYIEDAIGESAKLMNPVTKFNTPWRRFFTSMPVYAIIVANFCRSWTFYLLLISQPAYFEEVFGFEISKVGLVSALPHLVMTIIVPIGGQIADFLRSRHIMSTTNVRKLMNCGGFGMEATLLLVVGYSHSKGVAISFLVLAVGFSGFAISGFNVNHLDIAPRYASILMGISNGVGTLSGMVCPIIVGAMTKHKTREEWQYVFLIASLVHYGGVIFYGVFASGEKQPWAEPEEMSEEKCGFVGHDQLAGSDESEMEDEVEPPGAPPAPPPSYGATHSTVQPPRPPPPVRDY
notes: VGLUT1, endogenous in rat brain; source: endogenous, detergent-solubilized rat brain extract
Turning to B2, the “band intensity normalised to lysate” value in test [7] came out at 0.877 a.u; in test [8], 0.183 a.u; in [9], 0.362 a.u; in [10], 0.103 a.u; in test [11], 0.763 a.u; in [12], 0.718 a.u.
